Experimental data taken from patent US20170240595.
Bridges are numbered along the chain shown (N, C = ends). Where no end group is shown, it is not given here. [ ]: non-standard residue; d: D form. 1Nal = N[C@@H](Cc1cccc2ccccc12)C(=O)O; 2Nal = N[C@@H](Cc1ccc2ccccc2c1)C(=O)O; d2Nal = N[C@H](Cc1ccc2ccccc2c1)C(=O)O; hPhe = N[C@@H](CCc1ccccc1)C(=O)O; Cha = N[C@@H](CC1CCCCC1)C(=O)O; dCha = N[C@H](CC1CCCCC1)C(=O)O; dTle = CC(C)(C)[C@@H](N)C(=O)O; Nle = CCCC[C@H](N)C(=O)O; Apn = not defined here; Bal = not defined here; Ahx = NCCCCCC(=O)O; GABA = NCCCC(=O)O; βAla = NCCC(=O)O

What follows are binders tested against hMC4-R (human), P32245 (assay: competition). Details: modification not given.
hMC4-R (human), P32245, sequence (P32245 whole entry): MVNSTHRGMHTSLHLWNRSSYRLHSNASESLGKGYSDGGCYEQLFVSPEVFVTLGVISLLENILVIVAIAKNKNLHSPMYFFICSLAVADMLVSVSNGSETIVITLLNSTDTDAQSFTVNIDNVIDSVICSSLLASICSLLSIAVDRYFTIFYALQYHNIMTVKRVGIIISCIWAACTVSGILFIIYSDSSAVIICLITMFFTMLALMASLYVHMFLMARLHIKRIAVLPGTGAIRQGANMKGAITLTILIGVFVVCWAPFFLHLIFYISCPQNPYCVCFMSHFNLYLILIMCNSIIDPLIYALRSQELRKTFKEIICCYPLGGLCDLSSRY

| Binder | Ki |
| --- | --- |
| Ac-[Nle]C[dI]H[dF]RWC-NH2 (disulfide 2-8) [Ac-Nle-c(Cys-D-Ile-His-D-Phe-Arg-Trp-Cys)-NH2] | 9 nM |
| Ac-[Nle]CH[dF]RW[Apn]C-NH2 (disulfide 2-8; reading uncertain) [Ac-Nle-c(Cys-His-D-Phe-Arg-Trp-Apn-Cys)-NH2] | 0.894 nM |
| Ac-[Nle]DH[dF]RW[βAla]K-NH2 (lactam 2-8; SMILES CCCC[C@H](NC(C)=O)C(=O)N[C@H]1CC(=O)NCCCC[C@@H](C(N)=O)NC(=O)CCNC(=O)[C@H](Cc2c[nH]c3ccccc23)NC(=O)[C@H](CCCNC(=N)N)NC(=O)[C@@H](Cc2ccccc2)NC(=O)[C@H](Cc2c[nH]cn2)NC1=O) [Ac-Nle-c(Asp-His-D-Phe-Arg-Trp-β-Ala-Lys)-NH2] | 0.617 nM |
| Ac-[hPhe]DH[d2Nal]RW[GABA]K-NH2 (lactam 2-8) [Ac-hPhe-c(Asp-His-D-2-Nal-Arg-Trp-Gaba-Lys)-NH2] | 0.931 nM |
| Ac-[Nle]C[dA]H[d2Nal]R[2Nal]C-NH2 (disulfide 2-8; SMILES CCCC[C@H](NC(C)=O)C(=O)N[C@H]1CSSC[C@@H](C(N)=O)NC(=O)[C@H](Cc2ccc3ccccc3c2)NC(=O)[C@H](CCCNC(=N)N)NC(=O)[C@@H](Cc2ccc3ccccc3c2)NC(=O)[C@H](Cc2c[nH]cn2)NC(=O)[C@@H](C)NC1=O) [Ac-Nle-c(Cys-D-Ala-His-D-2-Nal-Arg-2-Nal-Cys)-NH2] | 2.53 nM |
| Ac-[Cha]CH[dF]RW[GABA]C-NH2 (disulfide 2-8; SMILES CC(=O)N[C@@H](CC1CCCCC1)C(=O)N[C@H]1CSSC[C@@H](C(N)=O)NC(=O)CCCNC(=O)[C@H](Cc2c[nH]c3ccccc23)NC(=O)[C@H](CCCNC(=N)N)NC(=O)[C@@H](Cc2ccccc2)NC(=O)[C@H](Cc2c[nH]cn2)NC1=O) [Ac-Cha-c(Cys-His-D-Phe-Arg-Trp-Gaba-Cys)-NH2] | 0.884 nM |
| Ac-[Nle]C[dCha]H[dF]RWC-NH2 (disulfide 2-8; SMILES CCCC[C@H](NC(C)=O)C(=O)N[C@H]1CSSC[C@@H](C(N)=O)NC(=O)[C@H](Cc2c[nH]c3ccccc23)NC(=O)[C@H](CCCNC(=N)N)NC(=O)[C@@H](Cc2ccccc2)NC(=O)[C@H](Cc2c[nH]cn2)NC(=O)[C@@H](CC2CCCCC2)NC1=O) [Ac-Nle-c(Cys-D-Cha-His-D-Phe-Arg-Trp-Cys)-NH2] | 1.41 nM |
| Ac-[Nle]CH[d2Nal]RW[Ahx]C-NH2 (disulfide 2-8) [Ac-Nle-c(Cys-His-D-2-Nal-Arg-Trp-Ahx-Cys)-NH2] | 0.998 nM |
| Ac-C[dA]H[dF]R[2Nal]AC-NH2 (disulfide 1-8; SMILES CC(=O)N[C@H]1CSSC[C@@H](C(N)=O)NC(=O)[C@H](C)NC(=O)[C@H](Cc2ccc3ccccc3c2)NC(=O)[C@H](CCCNC(=N)N)NC(=O)[C@@H](Cc2ccccc2)NC(=O)[C@H](Cc2c[nH]cn2)NC(=O)[C@@H](C)NC1=O) [Ac-c(Cys-D-Ala-His-D-Phe-Arg-2-Nal-Ala-Cys)-NH2] | 40.7 nM |
| [Nle]CH[dF]RW[GABA]C-NH2 (disulfide 2-8) [Nle-c(Cys-His-D-Phe-Arg-Trp-Gaba-Cys)-NH2] | 0.47 nM |
| [Nle]CH[dF]RW[Apn]C-NH2 (disulfide 2-8; reading uncertain) [Nle-c(Cys-His-D-Phe-Arg-Trp-Apn-Cys)-NH2] | 0.85 nM |
| Ac-[Nle]C[dL]H[dF]RWC-NH2 (disulfide 2-8; SMILES CCCC[C@H](NC(C)=O)C(=O)N[C@H]1CSSC[C@@H](C(N)=O)NC(=O)[C@H](Cc2c[nH]c3ccccc23)NC(=O)[C@H](CCCNC(=N)N)NC(=O)[C@@H](Cc2ccccc2)NC(=O)[C@H](Cc2c[nH]cn2)NC(=O)[C@@H](CC(C)C)NC1=O) [Ac-Nle-c(Cys-D-Leu-His-D-Phe-Arg-Trp-Cys)-NH2] | 4.13 nM |
| Ac-[Nle]CH[d2Nal]RW[GABA]C-NH2 (disulfide 2-8) [Ac-Nle-c(Cys-His-D-2-Nal-Arg-Trp-Gaba-Cys)-NH2] | 0.375 nM |
| Ac-[Nle]C[dA]H[d2Nal]R[Bal]C-NH2 (disulfide 2-8; reading uncertain) [Ac-Nle-c(Cys-D-Ala-His-D-2-Nal-Arg-Bal-Cys)-NH2] | 16.6 nM |
| Ac-[hPhe]DH[dF]RW[GABA]K-NH2 (lactam 2-8) [Ac-hPhe-c(Asp-His-D-Phe-Arg-Trp-Gaba-Lys)-NH2] | 3.37 nM |
| Ac-[Cha]DH[d2Nal]RW[GABA]K-NH2 (lactam 2-8; SMILES CC(=O)N[C@@H](CC1CCCCC1)C(=O)N[C@H]1CC(=O)NCCCC[C@@H](C(N)=O)NC(=O)CCCNC(=O)[C@H](Cc2c[nH]c3ccccc23)NC(=O)[C@H](CCCNC(=N)N)NC(=O)[C@@H](Cc2ccc3ccccc3c2)NC(=O)[C@H](Cc2c[nH]cn2)NC1=O) [Ac-Cha-c(Asp-His-D-2-Nal-Arg-Trp-Gaba-Lys)-NH2] | 2.82 nM |
| Ac-[Nle]C[dA]H[d2Nal]R[1Nal]C-NH2 (disulfide 2-8; SMILES CCCC[C@H](NC(C)=O)C(=O)N[C@H]1CSSC[C@@H](C(N)=O)NC(=O)[C@H](Cc2cccc3ccccc23)NC(=O)[C@H](CCCNC(=N)N)NC(=O)[C@@H](Cc2ccc3ccccc3c2)NC(=O)[C@H](Cc2c[nH]cn2)NC(=O)[C@@H](C)NC1=O) [Ac-Nle-c(Cys-D-Ala-His-D-2-Nal-Arg-1-Nal-Cys)-NH2] | 3.07 nM |
| Ac-[Nle]DH[dF]RW[Apn]K-NH2 (lactam 2-8; reading uncertain) [Ac-Nle-c(Asp-His-D-Phe-Arg-Trp-Apn-Lys)-NH2] | 11.1 nM |
| Ac-[2Nal]CH[dF]RW[GABA]C-NH2 (disulfide 2-8; SMILES CC(=O)N[C@@H](Cc1ccc2ccccc2c1)C(=O)N[C@H]1CSSC[C@@H](C(N)=O)NC(=O)CCCNC(=O)[C@H](Cc2c[nH]c3ccccc23)NC(=O)[C@H](CCCNC(=N)N)NC(=O)[C@@H](Cc2ccccc2)NC(=O)[C@H](Cc2c[nH]cn2)NC1=O) [Ac-2-Nal-c(Cys-His-D-Phe-Arg-Trp-Gaba-Cys)-NH2] | 2.94 nM |
| Ac-[Nle]C[dTle]H[dF]RWC-NH2 (disulfide 2-8) [Ac-Nle-c(Cys-D-Tle-His-D-Phe-Arg-Trp-Cys)-NH2] | 11.2 nM |
| Ac-[Nle]CH[dF]RW[Ahx]C-NH2 (disulfide 2-8; SMILES CCCC[C@H](NC(C)=O)C(=O)N[C@H]1CSSC[C@@H](C(N)=O)NC(=O)CCCCCNC(=O)[C@H](Cc2c[nH]c3ccccc23)NC(=O)[C@H](CCCNC(=N)N)NC(=O)[C@@H](Cc2ccccc2)NC(=O)[C@H](Cc2c[nH]cn2)NC1=O) [Ac-Nle-c(Cys-His-D-Phe-Arg-Trp-Ahx-Cys)-NH2] | 1.23 nM |
| Ac-[Nle]C[dV]H[dF]RWC-NH2 (disulfide 2-8) [Ac-Nle-c(Cys-D-Val-His-D-Phe-Arg-Trp-Cys)-NH2] | 10.1 nM |
| Ac-[Nle]DH[dF]RW[GABA]K-NH2 (lactam 2-8) [Ac-Nle-c(Asp-His-D-Phe-Arg-Trp-Gaba-Lys)-NH2] | 1.04 nM |
